Experimental data from patent publication US7629437.

Chain of Recombinant human βI tryptase (chain, as listed by the source): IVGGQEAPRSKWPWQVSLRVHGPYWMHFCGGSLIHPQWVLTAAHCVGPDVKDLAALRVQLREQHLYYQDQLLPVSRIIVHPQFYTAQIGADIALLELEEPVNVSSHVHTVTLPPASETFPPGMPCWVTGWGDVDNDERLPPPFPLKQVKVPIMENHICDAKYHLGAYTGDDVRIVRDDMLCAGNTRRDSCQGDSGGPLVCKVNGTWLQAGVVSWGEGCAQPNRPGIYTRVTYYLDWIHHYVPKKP

Substance	Km (Ac-PANK-ACC)	kcat (Ac-PANK-ACC)	kcat/Km (Ac-PANK-ACC)	Km (Ac-PRNR-ACC)	kcat (Ac-PRNR-ACC)	kcat/Km (Ac-PRNR-ACC)	Km (Ac-PRNK-ACC)	kcat (Ac-PRNK-ACC)	kcat/Km (Ac-PRNK-ACC)	preference (kcat/Km) over Ac-PRTK-ACC (Ac-PRNK-ACC)	Km (Ac-PRTK-ACC)	kcat (Ac-PRTK-ACC)	kcat/Km (Ac-PRTK-ACC)	also measured
Recombinant human βII tryptase	133 µM	19.1 s⁻¹	140000 M⁻¹ s⁻¹	18.6 µM	20.9 s⁻¹	1.12e+06 M⁻¹ s⁻¹	14.5 µM	17.8 s⁻¹	1.23e+06 M⁻¹ s⁻¹	A minimal preference, approximately two-fold, for P2-asparagine over P2-threonine	23.4 µM	18.3 s⁻¹	780000 M⁻¹ s⁻¹	
Recombinant human βI tryptase	110 µM	20.3 s⁻¹	180000 M⁻¹ s⁻¹	16.5 µM	21.8 s⁻¹	1.31e+06 M⁻¹ s⁻¹	8.9 µM	16.8 s⁻¹	1.89e+06 M⁻¹ s⁻¹	A minimal preference, approximately two-fold, for P2-asparagine over P2-threonine	14.7 µM	18.7 s⁻¹	1.27e+06 M⁻¹ s⁻¹	
Human thrombin														Km (Ac-Leu-Gly-Pro-Lys-AMC): 160 µM; kcat (Ac-Leu-Gly-Pro-Lys-AMC): 2.3 s⁻¹; kcat/Km (Ac-Leu-Gly-Pro-Lys-AMC): 15000 M⁻¹ s⁻¹; Km (Ac-Nle-Thr-Pro-Lys-ACC): 125 µM; kcat (Ac-Nle-Thr-Pro-Lys-ACC): 33.7 s⁻¹; kcat/Km (Ac-Nle-Thr-Pro-Lys-ACC): 280000 M⁻¹ s⁻¹; Km (Ac-Nle-Thr-Pro-Lys-AMC): 115 µM; kcat (Ac-Nle-Thr-Pro-Lys-AMC): 31 s⁻¹; kcat/Km (Ac-Nle-Thr-Pro-Lys-AMC): 260000 M⁻¹ s⁻¹; Km (Ac-Leu-Gly-Pro-Lys-ACC): 195 µM; kcat (Ac-Leu-Gly-Pro-Lys-ACC): 3.2 s⁻¹; kcat/Km (Ac-Leu-Gly-Pro-Lys-ACC): 18000 M⁻¹ s⁻¹
